Measured values reported in patent EP2586797A2 (Medtronic, Inc., dated 2013).

What was measured:
[1] = biological target: T1, Abeta42 beta amyloid peptide (UniProt P05067 672-713); assay: competition ELISA, purified antibody 0.003-16 ug/ml against biotinylated 6E10 (chimeric mouse 6E10) on coated beta amyloid, n=2
T1 construct: domain: Abeta42 beta amyloid peptide; also called Aβ42; Aβ

[2] = biological target: T1, Abeta42 beta amyloid peptide; assay: competition ELISA, purified antibody against biotinylated 6E10 (chimeric mouse 6E10) on coated beta amyloid; the reference row itself
[3] = biological target: T1, Abeta42 beta amyloid peptide; assay: competition ELISA, NS0 supernatant titrated against 0.25 ug/ml biotinylated mouse 6E10 (mouse MDT-2007) on coated beta amyloid; IC50 normalised to mouse 6E10 (=1; <1 improved)
[4] = biological target: T1, Abeta42 beta amyloid peptide; assay: competition ELISA, purified antibody against biotinylated 6E10 on coated beta amyloid; normalised to the row 'Mouse' (chimeric mouse 6E10); <1 improved
[5] = biological target: T1, Abeta42 beta amyloid peptide; assay: competition ELISA, purified antibody on coated beta amyloid (Table 4), against the mouse reference

T1 sequence (P05067 672-713 limits assumed): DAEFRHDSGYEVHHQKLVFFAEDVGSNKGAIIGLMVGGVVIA

| IC50 [1] | Fold Difference (IC50 normalised to the reference) [2] | fold difference in IC50 relative to mouse 6E10 [3] | Fold Difference (IC50 normalised to the reference) [4] | fold increase in binding compared to the mouse reference [5] | Binder |
| --- | --- | --- | --- | --- | --- |
| 3.6 µg/mL | 1 fold |  |  |  | mouse 6E10 anti-Aβ antibody (antibody, V domains shown, Murine monoclonal from hybridoma 6E10 (Covance); also called 6E10 mouse antibody) VH: EVQLQQSGAELVKPGASVKLSCTASGFNIKDTYIHWVKQRPEQGLEWIGRFDPVNVNTRYDSRFRGKATITSDASSNTAYLHLNSLTSEDTAVYYCSRSYYNGRRRFTYWGQGTLVTVSA VL: DIVMTQSPSSLTVTAGEKVALTCKASQSLLSSGNQKNYLTWYQQKPGQPPKLLIYWASIRESGVPDRFTGSGSGTFFTLTISSVQAEDLAVYYCQNDYNYPFTFGSGTKLEIK |
| 4.1 µg/mL |  | 0.94 fold | 1.14 fold |  | Composite human antibody variant VH4/VK1 (antibody, human IgG1, V domains shown, Human IgG1/kappa (pANT15/pANT13), NS0 cells; also called VH4/YK1) VH: QVQLVQSGAEVKKPGASVKVSCTASGFNIKDTYIHWVRQARGQRLEWIGRFDPVNVNTRYDSRFRGRVTITSDASTNTAYMELSSLRSEDTAVYYCSRSYYNGRRRFTYWGQGTLVTVSS VL: DIVMTQSPDSLTVSLGERATINCKASQSLLSSGNQKNYLTWYQQKPGQPPKLLIYWASIRESGVPDRFTGSGSGTFFTLTISSLQAEDVAVYYCQNDYNYPFTFGQGTKLEIK |
| 2.6 µg/mL |  | 0.72 fold | 0.72 fold |  | Composite human antibody variant VH5/VK2 (antibody, human IgG1, V domains shown, Human IgG1/kappa (pANT15/pANT13), NS0 cells) VH: QVQLVQSGAEVKKPGASVKVSCTASGFNIKDTYIHWVRQARGQRLEWIGRFDPVNVNTRYDSRFRGRVTITSDASTSTAYMELSSLRSEDTAVYYCSRSYYNGRRRFTYWGQGTLVTVSS VL: DIVMTQSPSSLTASVGDRVTITCKASQSLLSSGNQKNYLTWYQQKPGQPPKLLIYWASIRESGVPDRFTGSGSGTFFTLTISSLQAEDVAVYYCQNDYNYPFTFGQGTKLEIK |
| 2.1 µg/mL |  | 0.67 fold | 0.57 fold | 1.72 fold | MDT-2007 (composite human antibody sequence variant VH4/VK2) (antibody, human IgG1, V domains shown, Human IgG1/kappa (pANT15/pANT13), NS0 cells) VH: QVQLVQSGAEVKKPGASVKVSCTASGFNIKDTYIHWVRQARGQRLEWIGRFDPVNVNTRYDSRFRGRVTITSDASTNTAYMELSSLRSEDTAVYYCSRSYYNGRRRFTYWGQGTLVTVSS VL: DIVMTQSPSSLTASVGDRVTITCKASQSLLSSGNQKNYLTWYQQKPGQPPKLLIYWASIRESGVPDRFTGSGSGTFFTLTISSLQAEDVAVYYCQNDYNYPFTFGQGTKLEIK |
| 3.3 µg/mL |  | 0.8 fold | 0.91 fold |  | Composite human antibody variant VH5/VK1 (antibody, human IgG1, V domains shown, Human IgG1/kappa (pANT15/pANT13), NS0 cells; also called VH5/YK1) VH: QVQLVQSGAEVKKPGASVKVSCTASGFNIKDTYIHWVRQARGQRLEWIGRFDPVNVNTRYDSRFRGRVTITSDASTSTAYMELSSLRSEDTAVYYCSRSYYNGRRRFTYWGQGTLVTVSS VL: DIVMTQSPDSLTVSLGERATINCKASQSLLSSGNQKNYLTWYQQKPGQPPKLLIYWASIRESGVPDRFTGSGSGTFFTLTISSLQAEDVAVYYCQNDYNYPFTFGQGTKLEIK |
